# Test results taken from patent publication US4446316A, “Dextran derivative of fibrinolysin” (Vsesojuzny Kardiologichesky Nauchny Tsentr, priority 1980, dated 1984).
# “Also recorded” adds a separate entry of the source.
# B1: Fibrinolysin: native enzyme; thrombolytic preparation administered intravenously (protein, UniProt P00747 20-580; P00747 581-810, looked up)
# Plasmin heavy chain A: EPLDDYVNTQGASLFSVTKKQLGAGSIEECAAKCEEDEEFTCRAFQYHSKEQQCVIMAENRKSSIIIRMRDVVLFEKKVYLSECKTGNGKNYRGTMSKTKNGITCQKWSSTSPHRPRFSPATHPSEGLEENYCRNPDNDPQGPWCYTTDPEKRYDYCDILECEEECMHCSGENYDGKISKTMSGLECQAWDSQSPHAHGYIPSKFPNKNLKKNYCRNPDRELRPWCFTTDPNKRWELCDIPRCTTPPPSSGPTYQCLKGTGENYRGNVAVTVSGHTCQHWSAQTPHTHNRTPENFPCKNLDENYCRNPDGKRAPWCHTTNSQVRWEYCKIPSCDSSPVSTEQLAPTAPPELTPVVQDCYHGDGQSYRGTSSTTTTGKKCQSWSSMTPHRHQKTPENYPNAGLTMNYCRNPDADKGPWCFTTDPSVRWEYCNLKKCSGTEASVVAPPPVVLLPDVETPSEEDCMFGNGKGYRGKRATTVTGTPCQDWAAQEPHRHSIFTPETNPRAGLEKNYCRNPDGDVGGPWCYTTNPRKLYDYCDVPQCAAPSFDCGKPQVEPKKCPGR
# Plasmin light chain B: VVGGCVAHPHSWPWQVSLRTRFGMHFCGGTLISPEWVLTAAHCLEKSPRPSSYKVILGAHQEVNLEPHVQEIEVSRLFLEPTRKDIALLKLSSPAVITDKVIPACLPSPNYVVADRTECFITGWGETQGTFGAGLLKEAQLPVIENKVCNRYEFLNGRVQSTELCAGHLAGGTDSCQGDSGGPLVCFEKDKYILQGVTSWGLGCARPNKPGVYVRVSRFVTWIEGVMRNN
# modifications: Plasmin
# notes: native enzyme; thrombolytic preparation administered intravenously
# B2: 1: polysaccharide derivative of fibrinolysin from oxidized polyglucin with the molecular mass of 20,000, reduced with sodium borohydride (conjugate, UniProt P00747 20-580; P00747 581-810, looked up)
# Plasmin heavy chain A: B1 Plasmin heavy chain A
# Plasmin light chain B: B1 Plasmin light chain B
# modifications: plasmin conjugated to oxidized polyglucin, borohydride-reduced
# notes: polysaccharide derivative of fibrinolysin from oxidized polyglucin with the molecular mass of 20,000, reduced with sodium borohydride
# B3: 2: polysaccharide derivative of fibrinolysin from oxidized polyglucin with the molecular mass of 110,000 and the oxidation degree of 20±2% (conjugate, UniProt P00747 20-580; P00747 581-810, looked up)
# Plasmin heavy chain A: B1 Plasmin heavy chain A
# Plasmin light chain B: B1 Plasmin light chain B
# modifications: plasmin conjugated to oxidized polyglucin
# Legend:
# [1] = tested on: thromboses of a rabbit's jugular vein; experiment: Thrombolytic activity on model of thrombosis of rabbit's jugular vein (lysis of thrombus); assay type: in vivo
# Description: (§1) The study of the specific (thrombolytic) effect of the polysaccharide fibrinolysin derivative according to the present invention has been studied on models of thromboses of a rabbit's jugular vein and a dog's femoral vein or artery. Thrombi of 1 to 2.5 cm size were formed in the above-mentioned animals which fully obliterated the cross-section of a blood vessel. The administration of the test preparation at the background of heparin was started one hour after the thrombus formation.
# (§2) On the basis of an expected prolonged fibrinolytic effect of the preparation according to the present invention, a test dose of the preparation ranging from 400 to 4,000 units per kg of the bodyweight is dissolved in a physiological solution, 20-30 ml for rabbits and 50-100 ml for dogs, and injected by means of a syringe in a jet-like manner intravenously over 20 minutes, not following the instruction on the use of fibrinolysin (intravenously by the dropwise method at a rate of 10-12 drops per minute).
# (§3) The dynamics of the thrombus formation and lysis was observed visually and by palpation during 6 hours of the experiment, after one, two and three days. The angiography and fluorometry were carried out prior to the beginning of the treatment and one day after the administration of the preparation.
# [2] = tested on: thromboses of a dog's femoral vein or artery; experiment: Thrombolytic activity on model of thrombosis of dog's femoral vein (lysis of thrombus); assay type: in vivo; conditions: dogs, n=1
# Description: as §1, §2, §3
# [3] = tested on: euglobulin fraction of dog's plasma; experiment: Lysis duration of the euglobulin fraction of dog's plasma with experimental thrombosis; assay type: in vivo
# Description: (§4) The prolonged effect of the fibrinolysin derivative according to the present invention has been studied in experiments on dogs in comparison with the effect of native fibrinolysin.
# Variation of lysis duration (in minutes) of the euglobulin
# fraction of dog's plasma with experimental thrombosis upon
# administration of the fibrinolysin derivative according to
# the present invention and native fibrinolysin
# thrombin time = experiment: Thrombin time in dogs with experimental thrombosis; assay type: in vivo, dog
# Description: as §4
# Variation of thrombin time (in seconds) in dogs with expe-
# rimental thrombosis after administration of the fibrinolysin
# derivative according to the present invention and native
# blood coagulation = experiment: Blood coagulation and bleeding during therapy of experimental thrombosis; assay type: in vivo, rabbit
# Description: as §1, §2, §3
# experimental thrombosis = experiment: Duration of fibrinolytic effect and effective dose in experimental thrombosis; assay type: in vivo, rabbits, dogs
# Description: as §1, §2, §3
# [4] = Fibrinolytic activity of the preparation; assay type: biochemical; conditions: for Specific (fibrinolytic) activity: lyophilized preparation; for Total activity relative to the initial value: of the initial value
# [5] = Solubility and hygroscopicity of the preparation; assay type: physicochemical; conditions: for Solubility in 0.9% isotonic solution of sodium chloride: 0.9% sodium chloride; for Hygroscopicity: lyophilized powder
# [6] = before administration (baseline)
molecule,measurement,setting,value
B1,Efficiency of the therapy (lysis of thrombus),"[1]; rabbits, 600 units/kg i.v.",no lysis
same,Efficiency of the therapy (lysis of thrombus),"[1]; rabbits, 800 units/kg i.v. (Table 1: 2 animals full lysis, 1 animal no lysis)",full lysis; also recorded: no lysis
same,Efficiency of the therapy (lysis of thrombus),"[1]; rabbits, 800 units/kg i.v. (Table 1: 2 animals full lysis, 1 animal no lysis), listed as fibrinolysin",no thrombolytic effect in all cases
same,Efficiency of the therapy (lysis of thrombus),"[1]; rabbits, 1,200 units/kg i.v.",full lysis
same,Efficiency of the therapy (lysis of thrombus),"[1]; rabbits, 2,000 units/kg i.v.",full lysis
same,Death of animals,"[1]; rabbits, 4,000 units/kg i.v.",death of animals
same,Efficiency of the therapy (lysis of thrombus),"[1]; rabbits, 4,000 units/kg i.v.",full lysis
same,Efficiency of the therapy (lysis of thrombus),"[2]; femoral vein, 800 units/kg i.v.",no lysis
same,Efficiency of the therapy (lysis of thrombus),"[2]; femoral vein, 1,600 units/kg i.v.",full lysis
same,Lysis duration of the euglobulin fraction,[3]; after 2 hours,3 min
same,Lysis duration of the euglobulin fraction,[3]; after 1 day,105 min
same,Lysis duration of the euglobulin fraction,[3]; after 2 days,90 min
same,"Lysis duration of the euglobulin fraction, initial parameter",[3]; [6],38 min
same,Thrombin time,thrombin time; after 2 hours,195 s
same,Thrombin time,thrombin time; after 1 day,95 s
same,Thrombin time,thrombin time; after 2 days,97 s
same,"Thrombin time, initial parameter",thrombin time; [6],22 s
same,Bleeding,blood coagulation; during treatment,bleeding
same,Changes in the third phase of blood coagulation,blood coagulation; during treatment,pathological changes in the third phase of blood coagulation
same,Content of fibrinogen,blood coagulation; first hours after administration,down to zero
same,Lysis of a thrombus at the minimal therapeutic dose,experimental thrombosis; 800 units/kg of the bodyweight,does not always cause the lysis of a thrombus
same,Duration of the fibrinolytic effect,experimental thrombosis; after administration,limited to one day
same,Minimal effective (therapeutical) dose,experimental thrombosis; single intravenous jet-like infusion,800 units/kg
B2,Specific (fibrinolytic) activity,[4],21.2 units/mg
same,Total activity relative to the initial value,[4],31.0%
same,Total activity,[4]; whole batch,48200 units
same,Solubility in 0.9% isotonic solution of sodium chloride,[5],soluble
same,Solubility in 95% ethanol,[5],substantially insoluble
same,Solubility in chloroform,[5],substantially insoluble
same,Solubility in ether,[5],substantially insoluble
same,Hygroscopicity,[5],hygroscopic
same,Solubility in water,[5],soluble
B3,Specific (fibrinolytic) activity,[4],24 units/mg
same,Total activity relative to the initial value,[4],30%
same,Solubility in 0.9% isotonic solution of sodium chloride,[5],readily soluble
same,Solubility in 95% ethanol,[5],substantially insoluble
same,Solubility in chloroform,[5],substantially insoluble
same,Solubility in ether,[5],substantially insoluble
same,Hygroscopicity,[5],hygroscopic
same,Solubility in water,[5],readily soluble
